B1: MOR04252 Fab (Fab, V domains shown)
VH: QVQLVESGGGLVQPGGSLRLSCAASGFTFSSYWMNWVRQAPGKGLEWVSGIENKYAGGATYYAASVKGRFTISRDNSKNTLYLQMNSLRAEDTAVYYCARGFGTDFWGQGTLVTVSS
VL: DIELTQPPSVSVAPGQTARISCSGDSIGKKYAYWYQQKPGQAPVLVIYKKRPSGIPERFSGSNSGNTATLTISGTQAEDEADYYCSSWDSTGLVFGGGTKLTVLG
notes: Fab with FLAG and 6xHis tags
B2: MOR04302 Fab (Fab, V domains shown)
VH: QVQLVESGGGLVQPGGSLRLSCAASGFTFSSYWMNWVRQAPGKGLEWVSGISYSGSETYYADSVKGRFTISRDNSKNTLYLQMNSLRAEDTAVYYCARGFGTDFWGQGTLVTVSS
VL: DIELTQPPSVSVAPGQTARISCSGDSIGKKYAYWYQQKPGQAPVLVIYKKRPSGIPERFSGSNSGNTATLTISGTQAEDEADYYCSAWGDKGMVFGGGTKLTVLG
notes: Fab with FLAG and 6xHis tags
B3: MOR04354 Fab (Fab, V domains shown)
VH: QVQLVESGGGLVQPGGSLRLSCAASGFTFSSYWMNWVRQAPGKGLEWVSGIESKWAGGATYYAAGVKGRFTISRDNSKNTLYLQMNSLRAEDTAVYYCARGFGTDFWGQGTLVTVSS
VL: DIELTQPPSVSVAPGQTARISCSGDSIGKKYAYWYQQKPGQAPVLVIYKKRPSGIPERFSGSNSGNTATLTISGTQAEDEADYYCSAWGDKGMVFGGGTKLTVLG
notes: X-cloned Fab (VH of MOR04290 x VL of MOR04302) with FLAG and 6xHis tags
B4: MOR04287 Fab (Fab, V domains shown)
VH: QVQLVESGGGLVQPGGSLRLSCAASGFTFSSYWMNWVRQAPGKGLEWVSGIENKRAGGATFYAASVKGRFTISRDNSKNTLYLQMNSLRAEDTAVYYCARGFGTDFWGQGTLVTVSS
VL: DIELTQPPSVSVAPGQTARISCSGDSIGKKYAYWYQQKPGQAPVLVIYKKRPSGIPERFSGSNSGNTATLTISGTQAEDEADYYCSSWDSTGLVFGGGTKLTVLG
notes: Fab with FLAG and 6xHis tags
B5: MOR04350 Fab (Fab, V domains shown)
VH: QVQLVESGGGLVQPGGSLRLSCAASGFTFSSYWMNWVRQAPGKGLEWVSGIENKRAGGATFYAASVKGRFTISRDNSKNTLYLQMNSLRAEDTAVYYCARGFGTDFWGQGTLVTVSS
VL: DIELTQPPSVSVAPGQTARISCSGDSIGKKYAYWYQQKPGQAPVLVIYKKRPSGIPERFSGSNSGNTATLTISGTQAEDEADYYCSAWGDKGMVFGGGTKLTVLG
notes: X-cloned Fab (VH of MOR04287 x VL of MOR04302) with FLAG and 6xHis tags
B6: MOR04290 Fab (Fab, V domains shown)
VH: QVQLVESGGGLVQPGGSLRLSCAASGFTFSSYWMNWVRQAPGKGLEWVSGIESKWAGGATYYAAGVKGRFTISRDNSKNTLYLQMNSLRAEDTAVYYCARGFGTDFWGQGTLVTVSS
VL: DIELTQPPSVSVAPGQTARISCSGDSIGKKYAYWYQQKPGQAPVLVIYKKRPSGIPERFSGSNSGNTATLTISGTQAEDEADYYCSSWDSTGLVFGGGTKLTVLG
notes: Fab with FLAG and 6xHis tags
B7: MOR04283 Fab (Fab, V domains shown)
VH: QVQLVQSGAEVKKPGSSVKVSCKASGGTFNSFLISWVRQAPGQGLEWMGAISPWDGVTGYAQKFQGRVTITADESTSTAYMELSSLRSEDTAVYYCARKFISDSWGQGTLVTVSS
VL: DIQMTQSPSSLSASVGDRVTITCRASQTINNYLNWYQQKPGKAPKLLIYTASNLQSGVPSRFSGSGSGTDFTLTISSLQPEDFAVYYCQQYSGSPMTFGQGTKVEIKR
notes: Fab with FLAG and 6xHis tags
B8: MOR04342 Fab (Fab, V domains shown)
VH: QVQLVQSGAEVKKPGSSVKVSCKASGGTFNSFLISWVRQAPGQGLEWMGAISPWDGVTGYAQKFQGRVTITADESTSTAYMELSSLRSEDTAVYYCARKFISDSWGQGTLVTVSS
VL: DIQMTQSPSSLSASVGDRVTITCRASQTINNYLNWYQQKPGKAPKLLIYTASNLQSGVPSRFSGSGSGTDFTLTISSLQPEDFATYYCQQYSWVPHTFGQGTKVEIKR
notes: X-cloned Fab (VH of MOR04283 x VL of MOR04297) with FLAG and 6xHis tags
B9: MOR04297 Fab (Fab, V domains shown)
VH: QVQLVQSGAEVKKPGSSVKVSCKASGGTFNSFLISWVRQAPGQGLEWMGGIIPIFGTANYAQKFQGRVTITADESTSTAYMELSSLRSEDTAVYYCARKFISDSWGQGTLVTVSS
VL: DIQMTQSPSSLSASVGDRVTITCRASQTINNYLNWYQQKPGKAPKLLIYTASNLQSGVPSRFSGSGSGTDFTLTISSLQPEDFATYYCQQYSWVPHTFGQGTKVEIKR
notes: Fab with FLAG and 6xHis tags
B10: MOR04251 Fab (Fab, V domains shown)
VH: QVQLVESGGGLVQPGGSLRLSCAASGFTFSSHWMSWVRQAPGKGLEWVSNIWRGPYIYYADSVKGRFTISRDNSKNTLYLQMNSLRAEDTAVYYCARFQGYGGGFDYWGQGTLVTVSS
VL: DIELTQPPSVSVAPGQTARISCSGDNLPGKYVHWYQQKPGQAPVLVIYYDSNRPSGIPERFSGSNSGNTATLTISGTQAEDEADYYCQSRTQTTIVFGGGTKLTVLG

Assays:
human GM-CSF [1] = target: T1, human GM-CSF (human, UniProt P04141 18-144); test: cell-based or functional assay
human GM-CSF [2] = target: T1, human GM-CSF; test: FACS receptor inhibition assay: inhibition of binding of 0.5 µg/ml biotinylated GM-CSF to GM-CSF receptor alpha on CHO-GMRa#11 cells
Procedure: (§1) All stainings were performed in round bottom 96-well culture plates (Nalge Nunc) with 1-5×10⁵ cells per well. […] Cells were then washed once with 150 μl FACS buffer/well and taken up in 100 μl phycoerythrin-labeled streptavidin (BD Biosciences Pharmingen) which has been diluted 1:400 in FACS buffer. […] IC₅₀ values were determined from the dose response curves obtained using GraphPad Prism v3.03 software applying a non-linear regression curve fit.
(§2) IC₅₀ values were determined from the dose response curves obtained using GraphPad Prism v3.03 software applying a non-linear regression curve fit.

human GM-CSF [3] = target: T1, human GM-CSF; test: SPR (Biacore), Fab over immobilized recombinant human GM-CSF (Peprotech), F1 chip; affinity estimated from off-rates
Procedure: A respective amount of HSA was immobilized on the reference flow cell. […] Fab was applied in concentration series of 6.3-200 nM at a flow rate of 20 μl/min.

human GM-CSF [4] = target: T1, human GM-CSF; test: FACS receptor inhibition assay: antibody pre-incubated with 0.5 µg/ml biotinylated GM-CSF, binding to GM-CSF receptor alpha on CHO-GMRa#11 cells
Procedure: as §1, §2

human GM-CSF [5] = target: T1, human GM-CSF; test: solution equilibrium titration (SET, ECL/BioVeris), Fab with human GM-CSF (Leucomax) in solution
human GM-CSF [6] = target: T1, human GM-CSF; test: cell-based or functional assay; remark: listed apart in the source
human GM-CSF [7] = target: T1, human GM-CSF; test: cell-based or functional assay; remark: listed apart in the source

T1 sequence (P04141 18-144): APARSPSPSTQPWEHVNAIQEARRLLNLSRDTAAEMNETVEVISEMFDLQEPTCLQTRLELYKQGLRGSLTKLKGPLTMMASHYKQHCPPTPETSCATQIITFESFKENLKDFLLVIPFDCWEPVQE

Row | Binder | IC50 (pM) in TF-1 proliferation assay, human GM-CSF 0.25 ng/ml (human GM-CSF [1]) [pM] | IC50 x-fold improved compared to BVD2-21C11, TF-1 proliferation assay (human GM-CSF [1]) [fold] | IC50 x-fold improved compared to Mab215, TF-1 proliferation assay (human GM-CSF [1]) [fold] | % inhibition at 5 µg/ml antibody (human GM-CSF [2]) [%] | Kd (human GM-CSF [3]) [nM] | IC50 (human GM-CSF [4]) [nM] | Kd (human GM-CSF [5]) [pM] | fold improvement of IC50 in TF-1 proliferation assay compared to parental MOR03929 (human GM-CSF [6]) [fold] | IC50 (pM) in TF-1 proliferation assay, human GM-CSF (human GM-CSF [7]) [pM]
1 | B1 | 2010 | 3.2 | 2.1 | ~75 | 0.055 | 26 | 6 | – | –
2 | B2 | 10700 | – | – | ~75 | 0.174 | 24 | 63.5 | – | –
3 | B3 | 56 | 117 | 77.1 | ~75 | 0.021 | 26 | 2.8 | > 2000 | –
4 | B4 | 3380 | 1.9 | 1.3 | ~75 | – | 25 | 17.9 | – | –
5 | B5 | 82 | 80 | 52.6 | ~75 | 0.019 | 24 | 1.1 | > 2000 | –
6 | B6 | 696 | 9.4 | 6.2 | ~75 | 0.122 | 27 | 11.1 | – | –
7 | B7 | – | – | – | – | – | – | 113 | – | 17300
8 | B8 | – | – | – | – | – | – | 4.9 | – | 80
9 | B9 | – | – | – | – | – | – | 49.2 | – | 14000
10 | B10 | 463 | 14.2 | 9.3 | ~100 | 0.07 | 53 | 7.4 | – | –
